From patent US20170129961A1 (Amgen, published 2017)

Assays:
human CD70 = biological target: T1, human CD70 (human, UniProt P32970 1-193); assay: FACS on CHO cells, periplasmic scFv
T1 construct: also called hu CD70; CD27L
T1 sequence: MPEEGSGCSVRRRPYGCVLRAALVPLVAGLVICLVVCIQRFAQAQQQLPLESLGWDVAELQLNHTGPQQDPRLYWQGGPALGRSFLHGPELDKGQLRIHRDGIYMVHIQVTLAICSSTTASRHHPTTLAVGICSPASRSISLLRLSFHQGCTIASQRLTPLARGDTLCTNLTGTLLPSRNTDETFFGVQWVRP
Procedure: (§1) All antibodies were diluted in PBS/1.5% FCS. As negative control, cells were incubated with PBS/2% FCS instead of the periplasmic extract. The samples were measured by flow cytometry.

[1] = biological target: T2, full-length mouse CD70 with C-terminal V5 tag (mouse, UniProt O55237 1-195); assay: FACS on CHO cells, periplasmic scFv
T2 construct: On transfected CHO cells; also called murine CD70
T2 sequence: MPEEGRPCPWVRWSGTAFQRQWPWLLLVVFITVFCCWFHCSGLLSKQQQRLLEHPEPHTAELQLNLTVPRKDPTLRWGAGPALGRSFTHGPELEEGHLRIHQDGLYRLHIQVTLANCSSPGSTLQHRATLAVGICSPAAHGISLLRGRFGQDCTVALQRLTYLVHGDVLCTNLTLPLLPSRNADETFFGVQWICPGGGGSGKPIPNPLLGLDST
Procedure: as §1

B1: CD70-14 (scFv)
scFv: EVQLLESGGGLVQPGGSLKLSCAASGFTFSIYAMSWVRQAPGKGLEWVSAISGSGGSTFYADSVKGRFTISRDNSKNTLYLQMNSLRAEDTAVYYCAKHDYSNYPYFDYWGQGTLVTVSSGGGGSGGGGSGGGGSEIVLTQSPGTLSLSPGERATLSCRASQSVRSSYLAWYQQKPGQAPRLLIYGASSRATGIPDRFSGSGSGTDFTLTISRLEPEDFAVYYCQQYGDLPFTFGPGTKLEIK
notes: As m32
binding result (human CD70): binds | binding result [1]: no binding

B2: CD70-16 (scFv)
scFv: EVQLLESGGGMVQPGGSLRLSCAASGFTFSSYAMSWVRQAPGKGLEWVSAISGSGGRTFYADSVEGRFTISRDNSKNTLYLQMNSLRAEDTAVYYCAKHDYSNYPYFDYWGQGTLVTVSSGGGGSGGGGSGGGGSEIVLTQSPGTLSLSPGERATLSCRASQSIRSSYLAWYQQKPGQAPRLLIYGASSRATGIPDRFSGSGSGTDFTLTISRLEPEDFAVYYCQQYGDLPFTFGPGTKLEIK
notes: As m32
binding result (human CD70): binds | binding result [1]: no binding

B3: CD70-18 (scFv)
scFv: EVQLLESGGGLVQPGGSLRLSCAASGFTFSSYAMSWVRQAPGKGLEWVSLISGSGGRTHYADSVKGRFTISRDNSKNTLYLQMNSLRAEDTAVYYCAKHDYSNYPYFDYWGQGTLVTVSSGGGGSGGGGSGGGGSEIVLTQSPGTLSLSPGERATLSCRASQSVRSTYLAWYQQKPGQAPRLLIYDASSRATGIPDRFSGSGSGTDFTLTISRLEPEDFAVYFCQQYGSSPPTFGGGTKLEIK
notes: As m32
binding result (human CD70): binds | binding result [1]: no binding

B4: CD70-21 (scFv)
scFv: EVQLLESGGGMVQPGGSLRLSCAASGFTFSTYAMSWVRQAPGKGLEWVSAISGSGGRTFYADSVEGRFTISRDNSKNTLYLQMNSLRAEDTAVYYCAKHDYSNYPYFDYWGQGTLVTVSSGGGGSGGGGSGGGGSEIVLTQSPGTLSLSPGERATLSCRASQSVRSTYLAWYQQKPGQAPRLLIYGASSRATGIPDRFSGSGSGTDFTLTISRLEPEDFAVYSCQQYGDLPFTFGPGTKLEIK
notes: As m32
binding result (human CD70): binds | binding result [1]: no binding

B5: CD70-19 (scFv)
scFv: EVQLLESGGGLVQPGGSLRLSCAASGFTFSTYAMSWVRQAPGKGLEWVSAISGSGGSTFYADSVKGRFTISRDNSKNTLSLQMNSLRAEDTAVYYCAKHDYSNYPYFDYWGQGTLVTVSSGGGGSGGGGSGGGGSEIVLTQSPGTLSLSPGERATLSCRASQSVRSSYLAWYQQKPGQAPRLLIYGASSRATGIPDRFSGSGSGTDFTLTISRLEPEDFAVYYCQQYGDLPFTFGPGTKLEIK
notes: As m32
binding result (human CD70): binds | binding result [1]: no binding

B6: CD70-2 (scFv)
scFv: QVQLVESGGGVVQPGRSLRLSCAASGFTFSSYGMHWVRQAPGKGLEWVAVIWYDGSDKYFADSVKGRFTISRDNSKNTLYLQMNSLRAEDTAVYYCARDGIAGARYVYFDYWGQGTLVTVSSGGGGSGGGGSGGGGSDIQMTQSPSSLSASVGDRVTITCRASQGISNYLAWFQQKPGKAPKSLIYAASSLQGGVPSKFSGSGSGTDFTLTISSLQPEDFATYYCQQYYNYPFTFGPGTTVDIK
binding result (human CD70): binds | binding result [1]: no binding

B7: CD70-8 (scFv)
scFv: QVQLVESGGGVVQPGRSLRLSCAASGFTFSSYGMHWVRQAPGKCLEWVAVIWYDGSDKYFADSVKGRFTISRDNSKNTLYLQMNSLRAEDTAVYYCARDGIAGARYVYFDYWGQGTLVTVSSGGGGSGGGGSGGGGSDIQMTQSPSSLSASVGDRVTITCRASQGISNYLAWFQQKPGKAPKSLIYAASSLQGGVPSKFSGSGSGTDFTLTISSLQPEDFATYYCQQYYNYPFTFGCGTTVDIK
binding result (human CD70): binds | binding result [1]: no binding

B8: CD70-4 (scFv)
scFv: QVQLVQSGAEVKKPGASVKVSCKASGYTFTSYGISWVRQAPGQGLEWMGWISAYNGYTHYAQKLQGRVTMTTDTSTSTAYMELRSLRSDDTAVYYCARDYGGNDYYGMDVWGQGTTVTVSSGGGGSGGGGSGGGGSQSVLTQPPSASGTPGQRVTISCSGSSSNIGINYVYWYQQLPGTAPKLLIYRSDQRPSGVPDRFSGSKSGTSASLALSGLRSEDEADYYCAAWDDSLSGVVFGGGTKLTVL
notes: As m32
binding result (human CD70): binds | binding result [1]: no binding

B9: CD70-9 (scFv)
scFv: QVQLVQSGAEVKKPGASVKVSCKASGYTFTSYGISWVRQAPGQCLEWMGWISAYNGYTHYAQKLQGRVTMTTDTSTSTAYMELRSLRSDDTAVYYCARDYGGNDYYGMDVWGQGTTVTVSSGGGGSGGGGSGGGGSQSVLTQPPSASGTPGQRVTISCSGSSSNIGINYVYWYQQLPGTAPKLLIYRSDQRPSGVPDRFSGSKSGTSASLALSGLRSEDEADYYCAAWDDSLSGVVFGCGTKLTVL
notes: As m32
binding result (human CD70): binds | binding result [1]: no binding

B10: CD70-11 (scFv)
scFv: QVQLVESGGGVVQPGRSLRLSCAASGFTFSTYGMHWVRQAPGKCLEWVAVIWYDGSNKYYGDSVKGRFTISRDNSKNTLYLQMNSLRAEDTAVYYCARDNSHYYYGMDVWGQGTTVTVSSGGGGSGGGGSGGGGSQSVLTQPPSVSGAPGQRVTISCTGSSSNIGAGYDVNWYQQFPGTAPKLLIYVNNNRPSGVPDRFSGSTSGTSASLAITGLQAEDEADYYCQSYETSLSASVFGCGTRLTVL
notes: As m32
binding result (human CD70): binds | binding result [1]: no binding

B11: CD70-12 (scFv)
scFv: QAQLVESGGGVVQPGRSLRLSCAASGFTFSYYGMHWVRQAPGKCLEWVAVIWYDGSNKYYADSVKGRFTISRDNSKNTLYLQMNSLRAEDTAVYYCARDREMGSRGDFDYWGQGTLVTVSSGGGGSGGGGSGGGGSDIQMTQSPSSLSASVGDRVTITCRASQGINNYLAWFQQKPGKAPKSLIYAVSILQSGVPSKFSGSGSGTDFTLTIGNLQPEDFATYYCQQYNFYPFSFGCGTKVDIK
notes: As m32
binding result (human CD70): binds | binding result [1]: no binding

B12: CD70-3 (scFv)
scFv: QEQLVESGGGVVQPGRSLRLSCAASGFTFSSYGMHWVRQAPGKGLEWVAVTWYDGSNKYYGDSVKGRFTISRDNSKNTLYLQMNSLRAEDTAVYYCARDLLRGVKGYAMDVWGQGTTVTVSSGGGGSGGGGSGGGGSEIVLTQSPGTLSLSPGERATLSCRASQSLRRIYLAWYQQKPGQAPRLLIYDVFDRATGIPDRFSGGGSGTDFTLTISRLEPEDFAVYYCQQYSDSPFTFGPGTKVDIK
notes: As m32
binding result (human CD70): binds | binding result [1]: no binding

B13: CD70-10 (scFv)
scFv: QVQLQESGPGLVKPSQTLSLTCTVSGDSIISGGYYWSWIRQHPGKCLEWIGYIFYSGSTDYNPSLKSRVTISVDTSKNQFSLKLSSVTAADTAVYYCARSGYSYALFDHWGQGTLVTVSSGGGGSGGGGSGGGGSDIQMTQSPSSLSASVGDRVTISCRASQFIGRYFNWYQQQPGKAPKVLIYAESSLQSGVPSRFSGSGSGTEFTLTISSLQPEDFARYYCQQSYSTPWTFGCGTKVEIK
notes: As m32
binding result (human CD70): binds | binding result [1]: no binding

B14: CD70-6 (scFv)
scFv: QVQLQESGPGLVKPSQTLSLTCTVSGDSIISGGYYWSWIRQHPGKCLEWIGYIFYSGSTDYNPSLKSRVTISVDTSKNQFSLKLSSVTAADTAVYYCARSGYSYALFDHWGQGTLVTVSSGGGGSGGGGSGGGGSDIQMTQSPSSLSASVGDRVTISCRASQFIGRYFNWYQQQPGKAPKVLIYAESSLQSGVPSRFSGSGSGTEFTLTISSLQPEDFARYYCQQSYSTPFTFGCGTKVEIK
notes: As m32
binding result (human CD70): binds | binding result [1]: no binding

B15: CD70-5 (scFv)
scFv: QVQLQESGPGLVKPSQTLSLTCTVSGDSIISGGYYWSWIRQHPGKGLEWIGYIFYSGSTDYNPSLKSRVTISVDTSKNQFSLKLSSVTAADTAVYYCARSGYSYALFDHWGQGTLVTVSSGGGGSGGGGSGGGGSDIQMTQSPSSLSASVGDRVTISCRASQFIGRYFNWYQQQPGKAPKVLIYAESSLQSGVPSRFSGSGSGTEFTLTISSLQPEDFARYYCQQSYSTPWTFGQGTKVEIK
notes: As m32
binding result (human CD70): binds | binding result [1]: no binding

B16: CD70-7 (scFv)
scFv: QVHLVQSGAEVKKPGASVRVSCKASGYTFTSYYLHWVRQAPGQCLEWMGIVDPSGGSTSYDQKFQGRFTMTRDTSTSTVYMELSSLRSEDTAVYYCARDYGDYVFDYWGQGTLVTVSSGGGGSGGGGSGGGGSQSVLTQPPSASGTPGQRVTISCSGSSSNIGTNTVNWYQQLPGTAPQLLIYINNQRPSGVPDRFSGSKSGTSASLAISGLQSEDEADYYCATWDDSLNGPVVGCGTKLTVL
notes: As m32
binding result (human CD70): binds | binding result [1]: no binding

B17: CD70-1 (scFv)
scFv: QVQLVESGGGVVQPGRSLRLSCAASGFTFSTYGMHWVRQAPGKGLEWVAVIWYDGSNKYYGDSVKGRFTISRDNSKNTLYLQMNSLRAEDTAVYYCARDNSHYYYGMDVWGQGTTVTVSSGGGGSGGGGSGGGGSQSVLTQPPSVSGAPGQRVTISCTGSSSNIGAGYDVNWYQQFPGTAPKLLIYVNNNRPSGVPDRFSGSTSGTSASLAITGLQAEDEADYYCQSYDTSLSASVFGGGTRLTVLS
binding result (human CD70): binds | binding result [1]: no binding

B18: CD70-13 (scFv)
scFv: EVQLLESGGGLVQPGGSLRLSCAASGFTFSSYAMSWVRQAPGKGLEWVSVISGSGGRPNYADSVKGRFTISRDNSKNTLYLQMNSLRDEDTAVYYCAKVDYSNYLFFDYWGQGTLVTVSSGGGGSGGGGSGGGGSEIVLTQSPGTLSLSPGEGATLSCRAGQSVRSSYLGWYQQKPGQAPRLLIYGASSRATGIPDRFSGSGSGTDFTLTISRLEPEDFAVYYCQQYGYSPPTFGGGTKLEIK
binding result (human CD70): binds | binding result [1]: no binding
